Key:
FOXO3a (human) = FOXO3a (human) (UniProt O43524); test: cell-based or functional assay
FOXO3a-TM (human) = FOXO3a-TM (human) (UniProt O43524); test: cell-based or functional assay

synthetic FOXO luciferase reporter (three tandem IRS elements), HepG2 cells (percent increase) (FOXO3a (human)): 50 | synthetic FOXO luciferase reporter (three tandem IRS elements), 293 cells (FOXO3a-TM (human)): 12 fold | synthetic FOXO luciferase reporter (three tandem IRS elements), HepG2 cells (FOXO3a-TM (human)): 2 fold
Substance: human Smek1 (from UniProt Q6IN85 1-833)

— patent publication US20060019314A1
